Experimental findings from patent publication US20220348651A1, “ENTPD2 ANTIBODIES, COMBINATION THERAPIES, AND METHODS OF USING THE ANTIBODIES AND COMBINATION THERAPIES” (Novartis AG, priority 2019, published 2022) are described below.

Data set [1] concerns the target T1, human ENTPD2 (Homo sapiens, UniProt Q9Y5L3).
T1 construct: residues 29-462 of human or cyno ENTPD2 were cloned into expression vector; GP67 signal peptide (N); made in house; host or cells: High Five (Trichoplusia ni) insect cells, baculovirus
T1 sequence (Q9Y5L3 29-462): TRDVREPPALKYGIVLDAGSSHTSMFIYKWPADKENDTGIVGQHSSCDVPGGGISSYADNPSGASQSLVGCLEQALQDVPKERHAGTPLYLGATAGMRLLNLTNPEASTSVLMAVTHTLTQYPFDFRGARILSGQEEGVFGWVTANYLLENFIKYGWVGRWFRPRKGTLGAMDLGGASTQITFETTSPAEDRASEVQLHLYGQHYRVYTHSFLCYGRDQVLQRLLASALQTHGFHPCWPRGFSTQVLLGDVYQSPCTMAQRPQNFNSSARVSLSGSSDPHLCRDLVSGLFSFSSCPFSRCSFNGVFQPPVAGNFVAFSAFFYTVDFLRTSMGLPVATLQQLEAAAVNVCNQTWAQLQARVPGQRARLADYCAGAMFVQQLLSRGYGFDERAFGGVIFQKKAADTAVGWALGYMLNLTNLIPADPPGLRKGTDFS
As to the kind of experiment: Biacore (SPR) affinity to human ENTPD2 ECD. To be noted: 25° C. It is filed as binding. The method, then:
(§1) Biacore Screening: Affinity was measured by determining the kinetic rate constants using surface plasmon resonance (SPR) on a Biacore T200 or T100 with the T200 sensitivity upgrade instrument (Biacore, GE Healthcare). Antibodies were captured on CM5 sensor chips (Biacore, GE Healthcare) prepared with a mouse anti-human IgG Fc antibody (ThermoFisher catalogue #05-4200) amine coupled to the surface. […] ENTPD2 analytes were allowed to associate for 180 s and dissociate for up to 1800 s depending on the off-rate of the antibody at a flow rate of 30 μL/min. The running buffer was PBS pH 7.2 (prepared from a Corning 10X stock, cat#46-013-CM)+0.05% Tween 20. Regeneration was accomplished with 30 s injections of 3 or 4 M MgCl2 to remove all the captured antibody and remaining complex from the surface, after which fresh antibody was captured. The raw data were analyzed using Biacore T200 Evaluation Software version 1.0 and fit to a 1:1 binding model, with all parameters set to fit globally except for RI, which was set to fit locally.
(In SPR one partner is held on a chip, and binding of the other changes the refractive index at the surface.)

The target of data set [2] is T2, Human ENTPD1 (Homo sapiens, UniProt P49961).
T2 construct: expressed in transfected cells; host or cells: NIH/3T3 (retroviral transduction, FACS-sorted)
T2 sequence (P49961 1-510): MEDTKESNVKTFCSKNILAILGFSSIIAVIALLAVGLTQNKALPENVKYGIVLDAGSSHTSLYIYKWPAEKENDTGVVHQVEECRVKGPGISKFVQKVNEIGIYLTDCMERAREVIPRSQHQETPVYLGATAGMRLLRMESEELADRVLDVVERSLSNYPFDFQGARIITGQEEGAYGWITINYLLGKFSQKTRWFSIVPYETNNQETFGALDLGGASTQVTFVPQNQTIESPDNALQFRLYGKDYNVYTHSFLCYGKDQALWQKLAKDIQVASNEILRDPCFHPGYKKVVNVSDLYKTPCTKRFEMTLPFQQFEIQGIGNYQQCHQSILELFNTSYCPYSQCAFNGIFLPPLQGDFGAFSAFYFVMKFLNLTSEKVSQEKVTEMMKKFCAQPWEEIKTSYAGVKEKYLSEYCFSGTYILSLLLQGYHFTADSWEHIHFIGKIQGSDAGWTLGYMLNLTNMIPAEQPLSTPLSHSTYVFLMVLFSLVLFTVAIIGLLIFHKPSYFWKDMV
The data set is described as follows: Cross reactivity: FACS binding to human ENTPD1 expressing NIH/3T3 cells. To be noted: NIH/3T3-ENTPD1 cells, 50 nM antibody. The method, then:
(§2) FACS screening: Specific binding of candidate antibodies to endogenously expressed ENTPD2 was assessed by flow cytometry. Cells were rinsed thoroughly with 1×PBS and treated with Accutase (Millipore #SCR005) to lift from growth plates and resuspended at approximately 1×10^5 cells/90 μL in 1× FACS buffer (2% FBS+0.1% NaN3 in PBS). In a 96-well U-bottom plate, 10 μL of 10× antibody solution in FACS buffer was pre-seeded and 90 μL of cell suspension was added. Cell were incubated for 30 minutes at 4° C., washed 1× with cold PBS and resuspended in 100 μL of 1:500 secondary antibody 1× FACS buffer (Allophycocyanin conjugated F(ab′)2 goat anti-human IgG, Fcγ specific; Jackson Immunoresearch, Cat#109-136-098). After additional incubation for 15 min at 4° C., cells were washed twice with PBS and resuspended in 100 μL of 1×FACS buffer with 4 μg/mL propidium iodide (Life Technologies, Cat#P3566). Geometric mean fluorescence intensity was calculated on live single cells using FlowJo software.
(§3) Cross reactivity Human ENTPD1 (NP_001767) expressing NIH/3T3 cells were generated using a retroviral transduction approach. 72 hrs post transduction, engineered cells were stained with the anti-Human CD39/ENTPD1 APC-conjugated Antibody (R&D systems, Minneapolis, Minn.) and live cells that expressed human ENTPD1 were separated from the rest of the population via fluorescence activated cell sorting. […]

In data set [3] the test system is NIH/3T3 cells. The data set is described as follows: Cross reactivity: FACS binding to NIH/3T3 control cells. The note with it: 50 nM antibody. The protocol: as §2, §3
In general terms: A flow cytometer gives signals particle by particle.

Data set [4] concerns cynomologus (cyno) ENTPD2. The data set is described as follows: Biacore (SPR) affinity to cyno ENTPD2 ECD. The note with it: 25° C. Format: binding, cynomolgus monkey. The protocol: as §1
Data set [5] concerns the target T3, mouse ENTPD2 (Mus musculus, UniProt O55026).
T3 construct: residues 29-462 of mouse or rat ENTPD2 (the extracellular domain); mouse IgK signal peptide (N); His6; made in house; host or cells: FreeStyle 293-F cells, transient transfection
T3 sequence (O55026 29-462): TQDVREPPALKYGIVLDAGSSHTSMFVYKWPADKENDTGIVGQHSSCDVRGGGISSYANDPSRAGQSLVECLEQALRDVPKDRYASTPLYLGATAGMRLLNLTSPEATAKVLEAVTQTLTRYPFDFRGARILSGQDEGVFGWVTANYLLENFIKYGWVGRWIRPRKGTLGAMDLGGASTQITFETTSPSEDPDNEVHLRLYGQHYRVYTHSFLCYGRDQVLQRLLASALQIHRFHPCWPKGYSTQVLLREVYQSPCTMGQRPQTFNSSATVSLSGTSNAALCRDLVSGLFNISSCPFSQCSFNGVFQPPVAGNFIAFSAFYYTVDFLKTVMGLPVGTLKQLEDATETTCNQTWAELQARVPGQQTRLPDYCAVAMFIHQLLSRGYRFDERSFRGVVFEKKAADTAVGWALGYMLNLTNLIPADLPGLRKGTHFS
The data set is described as follows: Antibody specificity: binding to mouse ENTPD2. To be noted: Mouse ENTPD2. The text has this:
Antibody specificity for mAbl-mAblO was confirmed. […] Antibodies mAb8, mAb9, and mAb10 show weak affinity to mouse ENTPD2. None of the selected antibodies bind to rat ENTPD2.

Data set [6] deals with H520 cells. The data set is described as follows: Cross reactivity: FACS binding to H520 cells (ENTPD3 and ENTPD8 expression). On the set-up: species or system human. The note with it: 50 nM antibody. The protocol: as §2
H520 cells were identified as a cancer cell line with ENTPD3 (Ct 25) and ENTPD8 (Ct 26) expression by Taqman and were used for selectivity screening.

Data set [7] deals with human ENTPD2 engineered B16LM3 clone B5. As to the kind of experiment: Human ENTPD2 engineered B16LM3 clone B5 model, dose response with anti-PD-1 Ab. It is filed as in vivo. The source says: This model was derived from the B16LM3 melanoma model, where endogenous mouse ENTPD2 expression was knocked out via a transient electroporation of CAS9 protein with CRISPR guide RNA sequences against mouse ENTPD2, and human ENTPD2 was overexpressed using a retroviral transduction approach.
Once tumors reached approximately 35-50 mm^3, mice were randomized according to tumor volume into treatment groups (n=8 per group). […] All doses were adjusted to individual mouse body weights.

[8] abbreviates: Day 7, mAb 10 mg/kg dosed D1, no anti-PD-1 Ab.

cynomologus (cyno) ENTPD2, sequence (as listed by the source): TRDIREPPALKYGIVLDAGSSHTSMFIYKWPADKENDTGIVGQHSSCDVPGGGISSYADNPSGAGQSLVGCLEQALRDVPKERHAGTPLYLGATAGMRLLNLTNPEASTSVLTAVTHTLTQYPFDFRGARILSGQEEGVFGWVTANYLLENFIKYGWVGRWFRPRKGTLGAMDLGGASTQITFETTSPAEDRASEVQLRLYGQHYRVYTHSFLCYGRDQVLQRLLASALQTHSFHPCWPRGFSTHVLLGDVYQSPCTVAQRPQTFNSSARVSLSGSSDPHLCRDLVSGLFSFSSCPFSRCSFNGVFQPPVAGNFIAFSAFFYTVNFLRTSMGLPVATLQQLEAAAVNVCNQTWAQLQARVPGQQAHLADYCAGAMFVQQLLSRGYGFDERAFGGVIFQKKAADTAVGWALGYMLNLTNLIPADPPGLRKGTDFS

B1: mAb6: humanized anti-human ENTPD2 antibody from mAb16; VH SEQ ID NO: 70, VL SEQ ID NO: 74 (antibody, V domains shown)
VH: QVQLQESGPGLVKPSQTLSLTCTVSGYSITSGYYWNWIRQHPGKGLEWMGYISYDADNNYNPSLKNRITISRDTSKNQFSLKLSSVTAADTAVYYCAGGYYRYGLGSYSGSYYYVMDYWGQGTTVTVSS
VL: DTQMTQSPSSLSVSVGDRATITCKASQSVDYEGHSYMNWYQQKPGKAPKLLIYAASNLESGVPSRFSGSGSGTDFTLTISSVQPEDFATYYCQQSNEDPPTFGGGTKLEIK
On to B1, for which the ka in data set [1] turned out to be 350000 M⁻¹ s⁻¹; in data set [4] it was 290000 M⁻¹ s⁻¹. Besides, the kd in data set [1] came to 0.00026 s⁻¹; in data set [4], 0.01 s⁻¹. Besides, the “Apparent FACS binding at 50 nM” value in data set [2], in data set [3] and in data set [6] was “No binding” in each case. Moreover, the “BIACore KD” value in data set [5] was “No binding”. The ΔT/ΔC in data set [7] (0.1 mg/kg i.v. day 1, combination with anti-PD-1 Ab fixed dose 10 mg/kg, Day 7) worked out at 41.0%; in data set [7] (1 mg/kg i.v. day 1, combination with anti-PD-1 Ab fixed dose 10 mg/kg, Day 7), 27.3%; in data set [7] (10 mg/kg i.v. day 1, combination with anti-PD-1 Ab fixed dose 10 mg/kg, Day 7) it was 29.2%. The “Host Response Survival (alive/total)” value in data set [7] (setting [8]) was 8/8. The “Host Response Δ body weight” value in data set [7] (setting [8]) is recorded as −0.1%. Moreover, in data set [7] (setting [8]), the “Tumor Response ΔT/ΔC” value is given as 60.0%. Further, the anti-tumor efficacy entry in data set [7] (as single agents, i.v. day 1) is reported as “No significant anti-tumor efficacy”.
